Positions count from the first letter of the chain named.
T1: human RANKL protein (human, UniProt O14788 140-317, limits assumed)
T1 sequence (looked up): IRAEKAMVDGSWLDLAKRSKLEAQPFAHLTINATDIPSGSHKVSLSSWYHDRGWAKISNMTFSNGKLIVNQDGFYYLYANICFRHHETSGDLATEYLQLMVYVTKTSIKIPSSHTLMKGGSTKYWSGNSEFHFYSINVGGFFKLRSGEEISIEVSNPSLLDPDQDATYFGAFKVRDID

T2: RANKL expressed on the surface of 293 cells (UniProt O14788 1-317, limits assumed)
T2 construct: whole, on cells; also called RANKL-transfected 293 cells; cells expressing RANKL
T2 sequence (looked up): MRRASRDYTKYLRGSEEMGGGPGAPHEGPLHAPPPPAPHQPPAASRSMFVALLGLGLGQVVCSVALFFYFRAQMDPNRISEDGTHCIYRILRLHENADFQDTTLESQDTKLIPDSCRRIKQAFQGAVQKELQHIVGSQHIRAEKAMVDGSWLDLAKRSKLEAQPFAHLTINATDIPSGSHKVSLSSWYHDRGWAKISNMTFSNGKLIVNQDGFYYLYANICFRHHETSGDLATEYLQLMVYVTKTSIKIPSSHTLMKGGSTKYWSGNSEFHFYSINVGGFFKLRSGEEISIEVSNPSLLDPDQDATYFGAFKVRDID

B1: clone 383 rabbit anti-RANKL antibody (antibody, V domains shown)
VH: QSLEESGGDLVKPGASLTLTCTASGFSFSRYVCWVRQAPGKGLEWIGCIAAGSSGYTYYASWAKGRLTISKTSSTTLTLQMTSLTVADTATYFCARSGDSYVGYFNLWGPGTLVTVSS
VL: IVMTQTPASVEAAVGGTVTIKCQASQNIYNYLAWYQQQPGQPPKLLIYSASNLASGVSSRFKGSGSGTEFTLTISDLECGDAATYYCQSYYDSSRISYGSAFGGGTEVVVK
B2: clone 327 rabbit anti-RANKL antibody (antibody, V domains shown)
VH: QSLEESGGRLVTPGTPLTLTCTVSGFSLSKYEINWVRQAPGKGLEWIGYIDVGSGTWYASWAKGRFTISKTSTTVALRITSPTTEDTATYFCSRQYNPMDLWGPGTLVTVSS
VL: DMTQTPASVEAAVGGTVTIKCQASQNIGSNLAWYQQKPGQRPKLLIYSASTLASGVPSRFKGSGSGTQFTLTISGVQCDDAATYYCQQGYSVGNVNNAFGGGTEVVVK
B3: clone 191 rabbit anti-RANKL antibody (antibody, V domains shown)
VH: QSVEESGGRLVTPGTPLTLTCTVSGFSLYTNLINWVRQAPGKGLEWIGYINYGASAYYANWAKGRFTISQTSSTTVDLKMTSLTIEDTATYFCARGYGNDWDRLDLWGQGTLVTVSS
VL: IVMTQTPSPVSGAVGGTVTINCQASQSIGSNLAWYQQKPGQPPKLLIYSASILASGAPSRVSGSGYGTEFTLTISGVQCADAATYYCQQGYTTNADNIFGGGTEVVVE
B4: clone 210 rabbit anti-RANKL antibody (antibody, V domains shown)
VH: QSVKESGGGLVTPGGTLTLTCTASGFSLSNNAMSWVRQAPGKGLEWIGYIYPGGSPYYANWAKGRFTISRTSTTVDLKMTSLTTEDTATYFCARHVSDGGWYLYIWGPGTLVTVSL
VL: DMIQTPASVEVAVGGTVTINCQASQSIGSNLAWYQQKPGQPPKLLIYGASTLASGVPSRFKGSGSGTQFTFTISDVECTAAATYYCQQAYSISNVDNAFGGGTEVVVK
B5: clone 174 rabbit anti-RANKL antibody (antibody, V domains shown)
VH: QEQLQESGGGLITPGGTLTLTCTASGFSFNRNALSWVRQAPGKGLEWIGYIYSGGSPYYANWAKGRFNVSRTSTTVDLRMTSLTTEDTATYFCARHVSGGGWYLDIWGPGTLVTVSL
VL: B4 VL with S26N, A49T, P57S, S65F, A80D
B6: clone 388 rabbit anti-RANKL antibody (antibody, V domains shown)
VH: QSVEESGGRLVTPGTPLTLTCTVSGFSLSSGVVSWVRQAPGKGLEWIGYAWSGGPTYYANWAKGRFTISKSSTTVDLKITSPTTADTATYFCARGYNGMDPWGPGTLVTVSS
VL: DMTQTPASVEVAVGGTVTIKCQASQNIGSNLAWYQQKPGQPPKLLIYKASTLASGVPSRFRGSGSGTEFTLAISDLECADAATYYCQQGYTTKDVVNPFGGGTEVVVK
B7: clone 379 rabbit anti-RANKL antibody (antibody, V domains shown)
VH: QEQLKESGGGLVTPGGTLTLTCTASRFSLINIGMSWVRQAPGRGLEWIGYIYSGGSPYYANWAKGRFTISRTSTTVDLKMTSLTTEDTATYFCARHASDGGWYLDIWGPGTLVTVSL
VL: B4 VL with G48L, A53P, A80D, S91T, I92A
B8: clone EBI-51-4 rabbit anti-RANKL antibody (antibody, V domains shown)
VH: QSVEESGGRLVKPGESLTLTCTASGFSLSSDVISWVRQAPGKGLEWIGYGWSGGPTYYANWAKGRFTISKTSSTTVDLKITSPTTEDTATYFCARGFNPFDPWGPGTLVTVSS
VL: DMTQTPASVSEPVGGTVTIKCQASQNIGSNLAWYQQKPGQRPKLLIYRASTLASGVSSRFKGSGSGTQFTLTISDLECADAATYYCQQGYSAGNVDNSFGGGTEVVVK
B9: clone EBI-51-11 rabbit anti-RANKL antibody (antibody, V domains shown)
VH: QSVEESGGRLITPGTPLTLTCTVSGFSLSTDVVSWVRQAPGTGLEWIGYTWSGGSTYYAIWAKGRFTISKTSSTTVDLKITSPTTEDTATYFCARGFNPFDPWGPGTLVTVSS
VL: DMTQTPASVSEPVGGTVTIKCQASQNIGSNLAWYQQKPGQRPKLLIYRASTLASGVSSRFKGSGSGTQFTLTISDLECADAATYYCQQGYSAGNVDKHVFGGGTEVVVK
B10: clone EBI-51-1 rabbit anti-RANKL antibody (antibody, V domains shown)
VH: QEQLEESGGGLVKPEGSLTLTCTASGFDLSTYYYMCWVRQAPGKGLEWIACIYTGRASTYYATWAKGRFTISKTSSTTVTLQMTSLTAADTATFFCASKAGDIWYYGMDLWGPGTLVTVSS
VL: B9 VL with K97N, H98N, V99T
B11: clone EBI-51-2 rabbit anti-RANKL antibody (antibody, V domains shown)
VH: B9 VH with V3L, I11V, V23A, S27T, L28I, V33I, T42K, I60N, I68L, T85I
VL: B8 VL with T3I, K20V, L31F, R41P, S65F, S98N
B12: clone EBI-51-23 rabbit anti-RANKL antibody (antibody, V domains shown)
VH: QSVKESEGGLFKPTDTLTLTCTVSGFSLSIYEISWVRQAPGKELEWIGYIGVGGVTYYANWAKSRSTITRNTNQKMVALKMTSLTAADTATYFCARGYNPFDLWGPGTLVTVSS
VL: B2 VL with A11V, K20N, R41P, S48K, F60L, Q68E, S91T, V92T, N96D, A98P
B13: clone 411 rabbit anti-RANKL antibody (antibody, V domains shown)
VH: B6 VH
VL: B6 VL
B14: clone 420 rabbit anti-RANKL antibody (antibody, V domains shown)
VH: QEQLKESGGGLVTPGGILTLTCTASGFSLRSNAMSWVRQAPGKGLEWIGYIYPGGAPHYASWAKGRFTISRNSTTVDLKMTSLTTEDTATYFCARHVSGGGWYLDIWGPGTLVTVSL
VL: B4 VL with A12G, S26N, L44F, P57S, Q68R, A80D, I92V, S93G
B15: clone 447 rabbit anti-RANKL antibody (antibody, V domains shown)
VH: B14 VH
VL: B4 VL with A12G, S26N, L44F, P57S, Q68R, A80D, I92V, S93G
B16: clone 416 rabbit anti-RANKL antibody (antibody, V domains shown)
VH: B4 VH with A23V, N30R, A39T, P52S, G54S, Y104D, T113A
VL: B4 VL with A12V, I19F, S26N, G48S, A80D
B17: clone 415 rabbit anti-RANKL antibody (antibody, V domains shown)
VH: B2 VH with L3V, T15G, P16S, K30N, I33M, A76D, R78K
VL: B2 VL with A11V

target: T1, human RANKL protein; experiment: cell-based or functional assay

| IC50 in a RAW cell assay (TRAP activity, OD 405 nM) [ng/mL] | Binder |
| --- | --- |
| 2 | B1 |
| 7.5 | B2 |

target: T2, RANKL expressed on the surface of 293 …; experiment: flow cytometry (MFI) on RANKL-transfected 293 cells

| EC50 [µg/mL] | Binder |
| --- | --- |
| 0.174 | B3 |
| 0.292 | B4 |
| 0.13 | B5 |

target: T1, human RANKL protein; experiment: competition ELISA: RANKL (0.5 ug/ml) pre-incubated with the antibody, then binding to coated human RANK (8 ug/ml) detected; blocked partner RANK

| IC50 [µg/mL] | Binder |
| --- | --- |
| 0.0621 | B1 |
| 0.161 | B6 |
| 0.0614 | B7 |
| 0.0416 | B2 |

target: T1, human RANKL protein; experiment: as above; remark: another data set of the same source

| IC50 [µg/mL] | Binder |
| --- | --- |
| 0.0388 | B8 |
| 0.0656 | B9 |
| 0.0753 | B10 |
| 0.0389 | B11 |
| 0.0482 | B12 |

target: T1, human RANKL protein; experiment: as above; remark: another data set of the same source

| IC50 [µg/mL] | Binder |
| --- | --- |
| 0.0823 | B3 |
| 0.071 | B4 |
| 0.0762 | B5 |

target: T2, RANKL expressed on the surface of 293 …; experiment: flow cytometry (MFI) on RANKL-transfected 293 cells; remark: another data set of the same source

| EC50 [µg/mL] | Binder |
| --- | --- |
| 0.078 | B8 |
| 0.0757 | B9 |
| 0.0867 | B10 |
| 0.0621 | B11 |
| 0.156 | B12 |

target: T1, human RANKL protein; experiment: competition ELISA: RANKL (0.5 ug/ml) pre-incubated with the antibody, then binding to coated human RANK (8 ug/ml) detected; blocked partner RANK; remark: another data set of the same source

| IC50 [µg/mL] | Binder |
| --- | --- |
| 0.0771 | B13 |
| 0.0754 | B14 |
| 0.0537 | B15 |
| 0.138 | B16 |
| 0.0545 | B17 |

target: T2, RANKL expressed on the surface of 293 …; experiment: flow cytometry (MFI) on RANKL-transfected 293 cells; remark: another data set of the same source

| EC50 [µg/mL] | Binder |
| --- | --- |
| 0.108 | B13 |
| 0.215 | B14 |
| 0.0617 | B15 |
| 0.203 | B16 |
| 0.16 | B17 |

target: T1, human RANKL protein; experiment: surface plasmon resonance

| Kd [nM] | koff [s⁻¹] | kon [M⁻¹ s⁻¹] | Binder |
| --- | --- | --- | --- |
| 2.13 | 0.0003 | 141000 | B2 |

target: T2, RANKL expressed on the surface of 293 …; experiment: flow cytometry (MFI) on RANKL-transfected 293 cells; remark: another data set of the same source

| EC50 [µg/mL] | Binder |
| --- | --- |
| 0.15 | B1 |
| 0.665 | B6 |
| 0.221 | B7 |
| 0.0871 | B2 |

From patent publication US20160032001A1 (APEXIGEN, published 2016)
